From patent US20120196803A1

Biological target: GFRα1 receptor/IgG Fc fusion
Assay: double sandwich ELISA, GFRα1/IgG Fc captured on plate

“An2-Flex-hGDNF (N-terminal Angiopep-2 fused to hGDNF^78-211 through a flexible ((GGGGS)2) linker) (from UniProt P39905 78-211)” showed a Bmax of 0.161 A405/min and a Kd of 0.16 nM.

Substance “An2-Hel-hGDNF (N-terminal Angiopep-2 fused to hGDNF^78-211 through a helical (A(EAAAK)2A) linker) (from UniProt P39905 78-211)” has a Bmax of 0.142 A405/min and a Kd of 0.27 nM.

With “An2-Rig-hGDNF (N-terminal Angiopep-2 fused to hGDNF^78-211 through a rigid (PAPAP) linker) (from UniProt P39905 78-211)” the Bmax was 0.202 A405/min and the Kd was 0.82 nM.

In the case of “An2-hGDNF (N-terminal Angiopep-2 fused to hGDNF^78-211) (from UniProt P39905 78-211)”, the Bmax is reported as 0.146 A405/min and the Kd is reported as 0.68 nM.

In the case of “An2NT-hGDNF (N-terminal reversed sequence Angiopep-2 fused to hGDNF^78-211) (from UniProt P39905 78-211)”, the Bmax is reported as 0.161 A405/min and the Kd is reported as 0.31 nM.

With “GDNF (hGDNF^78-211) (from UniProt P39905 78-211) (ligand)” the Bmax was 0.155 A405/min and the Kd was 0.24 nM.

Substance “hGDNF-An2 (C-terminal Angiopep-2 fused to hGDNF^78-211) (from UniProt P39905 78-211)” has a Bmax of 0.155 A405/min and a Kd of 0.53 nM.
